Measured values as given in patent US20240150474A1 (Regeneron, published 2024).

T1: dimeric mouse ACVRL1 (mouse, UniProt Q61288 23-119, limits assumed)
T1 construct: Construct and dimerising part not described; also called Mouse Receptor ACVRL1
T1 sequence (looked up): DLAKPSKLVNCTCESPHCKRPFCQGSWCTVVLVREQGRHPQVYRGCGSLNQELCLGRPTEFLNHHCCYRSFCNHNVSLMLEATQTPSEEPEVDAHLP

T2: dimeric human BMPR1B (human, UniProt O00238 14-126, limits assumed)
T2 construct: Construct and dimerising part not described; also called Human Receptor BMPR1B
T2 sequence (looked up): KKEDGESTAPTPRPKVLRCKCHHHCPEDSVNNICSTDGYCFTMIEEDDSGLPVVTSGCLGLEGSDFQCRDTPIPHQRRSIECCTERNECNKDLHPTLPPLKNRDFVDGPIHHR

T3: dimeric mouse BMPR1B (mouse, UniProt P36898 14-126, limits assumed)
T3 construct: Construct and dimerising part not described; also called Mouse Receptor BMPR1B
T3 sequence (looked up): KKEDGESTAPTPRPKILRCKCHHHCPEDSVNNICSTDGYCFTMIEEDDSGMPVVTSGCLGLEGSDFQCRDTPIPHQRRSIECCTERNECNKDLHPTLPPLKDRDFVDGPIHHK

T4: full length human ACVR1 (amino acids 1-509, R206H, of accession #Q04771) on HEK293/BRE-luc/hACVR1-R206H-clone … (human, UniProt Q04771 21-509)
T4 construct: Expressed as amino acids 1-509; also called HEK293/hACVR1-R206H
T4 sequence: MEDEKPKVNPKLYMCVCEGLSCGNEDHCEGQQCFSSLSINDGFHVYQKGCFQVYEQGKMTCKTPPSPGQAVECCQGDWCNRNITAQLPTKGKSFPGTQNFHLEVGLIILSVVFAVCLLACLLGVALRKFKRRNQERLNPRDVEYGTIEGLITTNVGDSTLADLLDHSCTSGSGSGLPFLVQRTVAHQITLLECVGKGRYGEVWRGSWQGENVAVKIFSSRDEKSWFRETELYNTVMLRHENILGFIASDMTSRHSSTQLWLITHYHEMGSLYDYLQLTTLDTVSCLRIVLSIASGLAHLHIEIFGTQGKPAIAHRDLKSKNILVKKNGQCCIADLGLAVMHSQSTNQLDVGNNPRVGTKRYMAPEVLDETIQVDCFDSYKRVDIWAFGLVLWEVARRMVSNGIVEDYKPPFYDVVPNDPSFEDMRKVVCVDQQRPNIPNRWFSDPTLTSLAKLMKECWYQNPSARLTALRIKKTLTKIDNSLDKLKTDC


Columns and labels:
dimeric mouse ACVRL1 = target: T1, dimeric mouse ACVRL1; test: SPR Biacore T200, mAb captured by anti-human Fab, 100 nM dimeric receptor injected, 25C
Method: (§1) ACVR1 mAbs were tested for cross-reactivity to a panel of bone morphogenic protein type 1 receptors including human and mouse ACVR1, BMPR1A, and BMPR1B, as well as ACVRL1 on a Biacore T200 as follows. In order to measure the specificity of ACVR1 mAbs, ACVR1 mAbs were captured with anti-human Fab immobilized on a CM5 chip. 100 nM or 10 nM of dimeric human or mouse ACVR1, ACVRL1, BMPR1A or BMPR1B were injected at 30 μL/min for 2 min (duplicate injections) and the experiment was performed at 25° C. Binding of different receptors to the captured mAb was determined using Scrubber 2.0c software.

dimeric mouse BMPR1A = target: T5, dimeric mouse BMPR1A (mouse, UniProt P36895 24-152, limits assumed); test: as above
T5 construct: Construct and dimerising part not described; also called Mouse Receptor BMPR1A
T5 sequence (P36895 24-152 limits assumed): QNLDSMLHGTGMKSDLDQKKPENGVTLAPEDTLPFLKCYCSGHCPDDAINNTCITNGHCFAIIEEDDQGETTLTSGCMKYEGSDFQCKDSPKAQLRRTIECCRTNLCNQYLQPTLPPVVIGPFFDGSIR
Method: as §1

dimeric human BMPR1B = target: T2, dimeric human BMPR1B; test: as above
Method: as §1

dimeric mouse BMPR1B = target: T3, dimeric mouse BMPR1B; test: as above
Method: as §1

dimeric human BMPR1A = target: T6, dimeric human BMPR1A (human, UniProt P36894 24-152, limits assumed); test: as above
T6 construct: Construct and dimerising part not described; also called Human Receptor BMPR1A
T6 sequence (P36894 24-152 limits assumed): as the sequence (P36895 24-152 limits assumed) above, with L16S, P21S, T74A counted along it
Method: as §1

[1] = target: T4, full length human ACVR1 (amino acids …); test: flow cytometry, 70 nM antibody on HEK293/hACVR1-R206H cells, 4C
Method: To assess binding of the anti-ACVR1 antibodies of the invention to ACVR1 receptors expressed on the cell surface, 70 nM of the antibodies were incubated with 5×10⁵ cells/well at 4° C. for 30 minutes in PBS (without calcium and magnesium) containing 2% FBS (flow buffer). […] Cells were fixed using BD CytoFix™ (Becton Dickinson, # 554655) and analyzed on IQue® Flow Cytometer (Intellicyt®). Unstained and secondary antibody alone controls were also tested on cells. The results were analyzed using ForeCyt® (IntelliCyt®) software to determine the geometric means of fluorescence for viable cells and the binding ratio was calculated by normalizing the geometric mean value of the test condition by the geometric mean value of the corresponding unstained cells.

100 nM Mouse Receptor Binding (dimeric mouse ACVRL1) | 100 nM Mouse Receptor Binding (dimeric mouse BMPR1A) | 100 nM Human Receptor Binding (dimeric human BMPR1B) | 100 nM Mouse Receptor Binding (dimeric mouse BMPR1B) | 100 nM Human Receptor Binding (dimeric human BMPR1A) | MFI-Normalized to Unstained Control [1] | Binder
3 RU | 8 RU | 20 RU | 1 RU | 2 RU | 2250 fold | REGN 5168 (antibody, human IgG4 S228P, kappa, V domains shown, also called REGN 5168-L1) VH: QVQLVQSGAEVKEPGASVKVSCKASGYTFAEYYMHWVRQAPGQGLEWMGAINPSGSHTSYAQKFQGRVTMTRDTSTSTVYMELSSLRSEDTAVYYCARSISGKRGGDYYGMDVWGQGTTVTVSS VL: DIQMTQSPSTLSASVGDRVTITCRASQSISSWLAWYQQKPGKAPKLLIYKASSLESGVPSRFSGSGSGTEFTLTISSLQPDDFATYYCQQYSIFPFTFGGGTKVEIKR
1 RU | 3 RU | 10 RU | 1 RU | 2 RU | 1870 fold | REGN 5167 (antibody, human IgG4 S228P, kappa, V domains shown, also called REGN 5167-L1) VH: QLQLQESGPGLVKPSETLSLTCTVSGGSITSSSYYWAWIRQPPGKGLEWIGKIYYSGSTHYNPSLKSRVTISVDTSKNQFSLKLSSVTAADTAVYYCARVGGHGYGDSAGLAFDIWGQGTMVTVSS VL: EIVLTQSPGTLSLSPGERATLSCRASQSVSSAFLAWYQQKPGQAPRLLIYGASYRHTGIPDRFSGSGSGTDFTLTISRLEPEDFAVYYCQHYGVGPRTFGGGTKVEIKR
4 RU | 9 RU | 24 RU | 1 RU | 2 RU | 2000 fold | REGN 5166 (antibody, human IgG4 S228P, kappa, V domains shown, also called REGN 5166-L1) VH: QVQLVESGGGVVQPGRSLRLSCAASGFTFSAYWMHWVRQAPGKGLEWVAVISYDGSNKYYADSVKGRFTISRDHSKNTLYLQMNSLRAEDTAVYYCAKGDAYDSWRILLGGDYYGMDVWGQGTTVTVSS VL: EIVLTQSPGTLSLSPGERATLSCRASQSVSSSYLAWYQQKPGQAPRPLIYGASSRATGIPDRFSGSGSGTDFTLTISRLEPEDFAVYYCQQGGDAPPYTFGGGTKVEIKR
